The values below come from PMC7877763 (2021).

In test [1] the target is full length pepsinized type I collagen from mouse tail tendon (mouse, UniProt P11087 152-1207; Q01149 86-1125). Nature of the test: SPR.
For test [2], the target named is GPR-foldon (foldon stabilized collagen model peptide containing a (GPP)5GPR(GPP)6 collagen sequence) (biotinylated (site not stated) for the BLI experiment). Nature of the test: BLI. For orientation: BLI is a label-free optical method that tracks binding on a fibre tip over time.

full length pepsinized type I collagen from mouse tail tendon, sequence (P11087 152-1207, chain 1 of 2): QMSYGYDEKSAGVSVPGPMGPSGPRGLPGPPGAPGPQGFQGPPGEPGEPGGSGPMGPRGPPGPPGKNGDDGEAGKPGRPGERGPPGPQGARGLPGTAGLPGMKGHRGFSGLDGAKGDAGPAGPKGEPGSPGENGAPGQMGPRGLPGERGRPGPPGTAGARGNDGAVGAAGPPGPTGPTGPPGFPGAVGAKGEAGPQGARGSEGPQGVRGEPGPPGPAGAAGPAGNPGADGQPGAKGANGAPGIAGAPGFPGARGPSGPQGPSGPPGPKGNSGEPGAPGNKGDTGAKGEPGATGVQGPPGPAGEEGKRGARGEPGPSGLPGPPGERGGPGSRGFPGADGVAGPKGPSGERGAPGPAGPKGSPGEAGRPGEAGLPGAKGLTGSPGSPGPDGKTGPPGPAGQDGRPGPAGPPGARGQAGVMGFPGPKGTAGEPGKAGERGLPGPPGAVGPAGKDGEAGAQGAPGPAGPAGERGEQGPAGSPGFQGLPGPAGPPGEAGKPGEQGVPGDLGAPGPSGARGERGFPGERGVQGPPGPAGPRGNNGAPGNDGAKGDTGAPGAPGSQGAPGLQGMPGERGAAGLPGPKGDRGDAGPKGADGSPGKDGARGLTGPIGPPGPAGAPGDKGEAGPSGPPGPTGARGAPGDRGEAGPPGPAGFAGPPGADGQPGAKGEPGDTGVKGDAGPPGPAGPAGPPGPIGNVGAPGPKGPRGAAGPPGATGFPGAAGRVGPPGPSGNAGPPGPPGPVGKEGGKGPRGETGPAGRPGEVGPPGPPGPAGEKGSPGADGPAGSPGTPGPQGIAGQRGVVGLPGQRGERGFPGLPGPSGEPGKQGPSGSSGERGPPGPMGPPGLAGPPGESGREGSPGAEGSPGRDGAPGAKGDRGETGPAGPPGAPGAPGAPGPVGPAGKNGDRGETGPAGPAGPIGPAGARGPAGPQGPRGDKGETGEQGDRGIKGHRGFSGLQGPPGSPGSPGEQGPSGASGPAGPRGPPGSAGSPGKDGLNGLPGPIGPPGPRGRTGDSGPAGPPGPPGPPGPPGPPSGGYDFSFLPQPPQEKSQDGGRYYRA
full length pepsinized type I collagen from mouse tail tendon, sequence (Q01149 86-1125, chain 2 of 2): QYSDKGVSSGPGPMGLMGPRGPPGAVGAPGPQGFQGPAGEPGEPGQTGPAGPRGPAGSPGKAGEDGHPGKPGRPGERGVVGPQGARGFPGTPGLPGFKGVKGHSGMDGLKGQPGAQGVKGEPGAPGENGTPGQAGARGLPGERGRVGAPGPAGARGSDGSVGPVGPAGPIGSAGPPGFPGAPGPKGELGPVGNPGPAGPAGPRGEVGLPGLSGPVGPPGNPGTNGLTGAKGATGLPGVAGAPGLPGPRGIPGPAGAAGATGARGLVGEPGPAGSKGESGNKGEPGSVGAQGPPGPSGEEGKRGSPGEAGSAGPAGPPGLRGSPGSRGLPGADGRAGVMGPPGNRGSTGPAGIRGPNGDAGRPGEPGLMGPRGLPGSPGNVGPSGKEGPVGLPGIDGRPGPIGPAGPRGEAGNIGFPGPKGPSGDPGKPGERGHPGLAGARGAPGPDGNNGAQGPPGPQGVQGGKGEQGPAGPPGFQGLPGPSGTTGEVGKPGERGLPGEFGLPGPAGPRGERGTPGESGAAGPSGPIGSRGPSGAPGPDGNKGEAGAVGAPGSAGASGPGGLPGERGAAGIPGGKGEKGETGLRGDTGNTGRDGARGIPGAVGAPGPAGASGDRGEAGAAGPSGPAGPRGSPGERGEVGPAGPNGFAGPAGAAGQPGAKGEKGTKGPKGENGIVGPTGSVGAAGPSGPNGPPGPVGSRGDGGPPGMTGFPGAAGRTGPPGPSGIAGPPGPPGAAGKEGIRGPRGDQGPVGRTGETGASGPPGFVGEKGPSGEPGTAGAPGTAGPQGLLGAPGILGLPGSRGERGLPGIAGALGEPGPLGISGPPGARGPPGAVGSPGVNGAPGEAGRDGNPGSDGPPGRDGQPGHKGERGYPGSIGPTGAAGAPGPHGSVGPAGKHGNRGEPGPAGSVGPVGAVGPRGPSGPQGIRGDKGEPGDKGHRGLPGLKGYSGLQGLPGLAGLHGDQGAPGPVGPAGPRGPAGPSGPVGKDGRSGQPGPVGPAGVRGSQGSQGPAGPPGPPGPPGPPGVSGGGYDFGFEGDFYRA

B1: recombinant canine HSP47-R222S (natural protein)
chain: LSPKAATLAERSAGLAFSLYQAMAKDQAVENILLSPVVVASSLGLVSLGGKATTASQAKAVLSAEQLRDEEVHAGLGELLRSLSNSTARNVTWKLGSRLYGPSSVSFAEDFVRSSKQHYNCEHSKINFRDKRSALQSINEWAAQTTDGKLPEVTKDVERTDGALLVNAMFFKPHWDEKFHHKMVDNSGFMVTRSYTVGVTMMHRTGLYNYYDDEKEKLQIVEMPLAHKLSSLIILMPHHVEPLERLEKLLTKEQLKIWMGKMQKKAVAISLPKGVVEVTHDLQKHLAGLGLTEAIDKNKADLSRMSGKKDLYLASVFHATAFEWDTEGNPFDQDIYGREELRSPKLFYADHPFIFLVRDTQSGSLLFIGRLVRPKGDKMRDEL
The term koff denotes a measure of how fast the partners let go of each other. Higher therefore signals a short-lived complex. B1: the koff in test [1] worked out at 0.003 s⁻¹; in test [2] it was 0.0186 s⁻¹.

B2: recombinant wild-type canine HSP47 (natural protein)
chain: LSPKAATLAERSAGLAFSLYQAMAKDQAVENILLSPVVVASSLGLVSLGGKATTASQAKAVLSAEQLRDEEVHAGLGELLRSLSNSTARNVTWKLGSRLYGPSSVSFAEDFVRSSKQHYNCEHSKINFRDKRSALQSINEWAAQTTDGKLPEVTKDVERTDGALLVNAMFFKPHWDEKFHHKMVDNRGFMVTRSYTVGVTMMHRTGLYNYYDDEKEKLQIVEMPLAHKLSSLIILMPHHVEPLERLEKLLTKEQLKIWMGKMQKKAVAISLPKGVVEVTHDLQKHLAGLGLTEAIDKNKADLSRMSGKKDLYLASVFHATAFEWDTEGNPFDQDIYGREELRSPKLFYADHPFIFLVRDTQSGSLLFIGRLVRPKGDKMRDEL
Take B2: the koff in test [1] is 0.011 s⁻¹; in test [2] it was 0.0185 s⁻¹.
